# According to PMC7954794, “Protein context shapes the specificity of SH3 domain-mediated interactions in vivo” (Nature Communications, 2021):
# B1: HSE1 (protein, UniProt P38753 2-452, looked up)
# Class E vacuolar …: SSSAIKIRNALLKATDPKLRSDNWQYILDVCDLVKEDPEDNGQEVMSLIEKRLEQQDANVILRTLSLTVSLAENCGSRLRQEISSKNFTSLLYALIESHSVHITLKKAVTDVVKQLSDSFKDDPSLRAMGDLYDKIKRKAPYLVQPNVPEKHNMSTQADNSDDEELQKALKMSLFEYEKQKKLQEQEKESAEVLPQQQQQHQQQNQAPAHKIPAQTVVRRVRALYDLTTNEPDELSFRKGDVITVLEQVYRDWWKGALRGNMGIFPLNYVTPIVEPSKEEIEKEKNKEAIVFSQKTTIDQLHNSLNAASKTGNSNEVLQDPHIGDMYGSVTPLRPQVTRMLGKYAKEKEDMLSLRQVLANAERSYNQLMDRAANAHISPPVPGPALYAGMTHANNTPVMPPQRQSYQSNEYSPYPSNLPIQHPTNSANNTPQYGYDLGYSVVSQPPPGYEQ
# B2: HOF1 (protein, UniProt Q05080 1-669, looked up)
# Cytokinesis protein 2: MSYSYEACFWDPNDNGVNILLGHISQGIRSCDSMILFFKQRSELEKDYARRLGAITGKLDKDIGTNMDYGKLNETFNVVLSVEKARAQSHSKQSEILFRQIYTDTKAFAANLQARYTTLSGKIERLRMDKFNKKKGCEVLQKKLQDAQIRFRDLQLNENNMIGAKRVEHNKRELLKWESNSQEYKVQLDVLKQEYKASQKFWIHEWAQLSCELQEMENARISFLQSKLQQFATSSMETYILEQTKMDMLTNHLNSFTAADEISTFSKENGTGRLKHKTSKGDMNSSANWAQMSSISTTSKKTESYMDNIRKLSSQLKETENKRKLASIDKYEKPLPSPEVTMATQFRNSTPVIRNETKVVANPTLSLRSSPVQLQSNVDDSVLRQKPDKPRPIVGEEQLKPDEDSKNPDEKGLMVHKRNQSLSSPSESSSSNPTDFSHIKKRQSMESMTTSVSSMANSIDDSQRFAKSWNSSNRKRKSMSHLQVPSSASSRSDDGGRTPNSAHNLNEDDYNTRRDTSTSTILFKPPVAVRGTSRGHTHRQSMIMQDSSNPIEDALYEMERIQSSSKPGTKTGNIMDERGVVRDRGITVTLPIVTSEGFPVIEYAKAMYPLIGNEAPGLANFHKGDYLLITEIVNKDWYKGEVYDNDRIDRNHRIGLIPYNFIQLLHQGL
# Test system: growth of yeast strains under 51 stress conditions
# Experiment: Growth assays in 51 stress conditions (Fig. 1E-F, S2D, S5B)
# Format: cell-based, Saccharomyces cerevisiae
# Parameters: key to Growth (Fig. S2D) / growth of ABP1 SH3-swapped strains in stress condition: log2 colony size, average of median per strain (growth score)
# Settings: ABP1 SH3-swapped strains
# Method: All WT, SH3-deleted, KO (except for CDC25 which is the only essential SH3-containing gene in yeast), ABP1 SH3-swapped, and SLA1 SH3-shuffled strains were grown on omnitrays in 1536 formats and robotically manipulated with a pin tool (the DHFR F[1,2] bait strains were used except for the KO strains). Each strain was randomly positioned in 6 replicates per plate and two plates per condition were performed, for 12 replicates per strain in total. A border of two rows and two columns of WT strains (BY4741) around the plate was used to remove border effects. Strains were grown on YPD media for two days at 30 °C. They were then replicated on 51 different media that are described in the Supplementary Table 3 and were incubated at 37 °C in a spImager custom platform with images acquired every two hours for four days. The colony sizes from plate pictures were also measured with the R package “Gitter” and the output was manually inspected. Positions with an abnormality in colony circularity were removed. The colony sizes after 74 h of incubation at 37 °C were log2 transformed and used for the analyses. First, the differences between the two plate replicates were corrected to remove plate effects. The median colony size was calculated for each strain per plate. Strains with a difference in their median colony size of more than two between the two plate replicates were removed. Finally, the average of the median colony size was calculated for each strain per condition (growth score).
molecule,measurement,setting,value
B1,Growth (Fig. S2D),Bathophenanthroline.0.1uM,10.8649
same,Growth (Fig. S2D),Bathophenanthroline.10uM,10.6324
same,Growth (Fig. S2D),Bathophenanthroline.1uM,10.7994
same,Growth (Fig. S2D),CaCl2.100mM,10.826
same,Growth (Fig. S2D),CaCl2.250mM,10.8072
same,Growth (Fig. S2D),CaCl2.500mM,10.2874
same,Growth (Fig. S2D),Caffein.10mM,10.0363
same,Growth (Fig. S2D),Caffein.2mM,11.0184
same,Growth (Fig. S2D),CdCl2.100uM,9.591
same,Growth (Fig. S2D),CdCl2.10uM,10.9135
same,Growth (Fig. S2D),CdCl2.50uM,9.882
same,Growth (Fig. S2D),CuSO4.1mM,10.4158
same,Growth (Fig. S2D),CuSO4.5mM,7.9665
same,Growth (Fig. S2D),Cycloheximide.0.05.uM,11.0571
same,Growth (Fig. S2D),Cycloheximide.0.2.uM,10.6529
same,Growth (Fig. S2D),Cycloheximide.0.5.uM,10.099
same,Growth (Fig. S2D),DMSO.2.,11.0462
same,Growth (Fig. S2D),DMSO.6.,9.883
same,Growth (Fig. S2D),DMSO.8.,9.238
same,Growth (Fig. S2D),Ethanol.2.,10.7698
same,Growth (Fig. S2D),Ethanol.6.,10.2684
same,Growth (Fig. S2D),Ethanol.8.,10.106
same,Growth (Fig. S2D),Galactose.2.,10.7486
same,Growth (Fig. S2D),Glycerol.2.,9.782
same,Growth (Fig. S2D),Hydroxyurea.25mM,10.7604
same,Growth (Fig. S2D),Hygromycin.190uM,10.981
same,Growth (Fig. S2D),Hygromycin.19uM,10.9309
same,Growth (Fig. S2D),Hygromycin.95uM,11.0429
same,Growth (Fig. S2D),MMS.0.004.,11.0045
same,Growth (Fig. S2D),MMS.0.02.,10.6778
same,Growth (Fig. S2D),MMS.0.04.,10.0151
same,Growth (Fig. S2D),Menadione.100uM,10.5782
same,Growth (Fig. S2D),Menadione.200uM,10.4179
same,Growth (Fig. S2D),Menadione.50uM,10.792
same,Growth (Fig. S2D),NaCl.0.25M,10.7546
same,Growth (Fig. S2D),NaCl.1M,9.884
same,Growth (Fig. S2D),Nitroquinoline.10uM,10.6974
same,Growth (Fig. S2D),Nitroquinoline.50uM,10.5671
same,Growth (Fig. S2D),Nystatin.0.01uM,11.0224
same,Growth (Fig. S2D),Nystatin.0.1uM,11.0326
same,Growth (Fig. S2D),Raffinose.2.,11.0272
same,Growth (Fig. S2D),Rapamycin.10nM,9.925
same,Growth (Fig. S2D),Rapamycin.50nM,9.396
same,Growth (Fig. S2D),SC.pH3,10.4058
same,Growth (Fig. S2D),SC.pH6,10.9649
same,Growth (Fig. S2D),SDS.0.01.,10.9823
same,Growth (Fig. S2D),SDS.0.02.,10.9972
same,Growth (Fig. S2D),SDS.0.05.,10.8418
same,Growth (Fig. S2D),Sorbitol.10mM,11.0121
same,Growth (Fig. S2D),Sorbitol.1mM,11.0602
same,Growth (Fig. S2D),Sorbitol.5mM,10.8937
B2,Growth (Fig. S2D),Bathophenanthroline.0.1uM,10.8727
same,Growth (Fig. S2D),Bathophenanthroline.10uM,10.6716
same,Growth (Fig. S2D),Bathophenanthroline.1uM,10.8166
same,Growth (Fig. S2D),CaCl2.100mM,10.8864
same,Growth (Fig. S2D),CaCl2.250mM,10.8461
same,Growth (Fig. S2D),CaCl2.500mM,10.3385
same,Growth (Fig. S2D),Caffein.10mM,10.1794
same,Growth (Fig. S2D),Caffein.2mM,11.0235
same,Growth (Fig. S2D),CdCl2.100uM,9.561
same,Growth (Fig. S2D),CdCl2.10uM,10.9284
same,Growth (Fig. S2D),CdCl2.50uM,9.924
same,Growth (Fig. S2D),CuSO4.1mM,10.5096
same,Growth (Fig. S2D),CuSO4.5mM,8.102
same,Growth (Fig. S2D),Cycloheximide.0.05.uM,11.0987
same,Growth (Fig. S2D),Cycloheximide.0.2.uM,10.6706
same,Growth (Fig. S2D),Cycloheximide.0.5.uM,10.177
same,Growth (Fig. S2D),DMSO.2.,11.0794
same,Growth (Fig. S2D),DMSO.6.,9.956
same,Growth (Fig. S2D),DMSO.8.,9.269
same,Growth (Fig. S2D),Ethanol.2.,10.828
same,Growth (Fig. S2D),Ethanol.6.,10.3088
same,Growth (Fig. S2D),Ethanol.8.,10.1098
same,Growth (Fig. S2D),Galactose.2.,10.8257
same,Growth (Fig. S2D),Glycerol.2.,9.711
same,Growth (Fig. S2D),Hydroxyurea.25mM,10.8274
same,Growth (Fig. S2D),Hygromycin.190uM,11.0188
same,Growth (Fig. S2D),Hygromycin.19uM,11.0238
same,Growth (Fig. S2D),Hygromycin.95uM,11.0846
same,Growth (Fig. S2D),MMS.0.004.,10.9957
same,Growth (Fig. S2D),MMS.0.02.,10.7428
same,Growth (Fig. S2D),MMS.0.04.,9.974
same,Growth (Fig. S2D),Menadione.100uM,10.6873
same,Growth (Fig. S2D),Menadione.200uM,10.4637
same,Growth (Fig. S2D),Menadione.50uM,10.8466
same,Growth (Fig. S2D),NaCl.0.25M,10.8422
same,Growth (Fig. S2D),NaCl.1M,9.66
same,Growth (Fig. S2D),Nitroquinoline.10uM,10.7373
same,Growth (Fig. S2D),Nitroquinoline.50uM,10.5646
same,Growth (Fig. S2D),Nystatin.0.01uM,10.9834
same,Growth (Fig. S2D),Nystatin.0.1uM,10.9984
same,Growth (Fig. S2D),Raffinose.2.,11.035
same,Growth (Fig. S2D),Rapamycin.10nM,9.895
same,Growth (Fig. S2D),Rapamycin.50nM,9.528
same,Growth (Fig. S2D),SC.pH3,10.4278
same,Growth (Fig. S2D),SC.pH6,10.9986
same,Growth (Fig. S2D),SDS.0.01.,11.0079
same,Growth (Fig. S2D),SDS.0.02.,11.0441
same,Growth (Fig. S2D),SDS.0.05.,10.886
same,Growth (Fig. S2D),Sorbitol.10mM,11.0139
same,Growth (Fig. S2D),Sorbitol.1mM,11.1055
same,Growth (Fig. S2D),Sorbitol.5mM,10.9626
